Results: patent US20040072754A1, “Amyloid precursor protein and APP-deprived peptides inhibit tumor growth and metastasis” (priority 2000, published 2004)
No end group written: not given here.

Key:
[1] = tested on: hippocampal cell cultures; conditions: Iversen et al., 1995; cited from earlier work
[2] = tested on: D122 tumor cells (Lewis lung carcinoma); assay: Lewis lung carcinoma (D122) i.v. lung metastasis model with i.p. injected Aβ peptides; type: in vivo, C57/BL mice; conditions: 20 μg/mouse/injection (Aβ96-110: 10 μg), 7 times during two weeks before and 7 times after D122 i.v. injection; examined after 21 days
Protocol: The intravenous (i.v.) model. […] D122 or B16 tumor cells were injected i.v. into Tg-APP, Tg-APP/SOD or parental mice and metastasis was evaluated after 30-37 days. In certain long-term experiments the evaluation was performed over a period of 120-140 days post injection of the tumor cells.
Aβ peptides in phosphate buffered saline (PBS) were injected i.p. into C57/BL mice 4-7 times (7-10 μg each time or 10-20 μg each time in other experiments) during two weeks preceding D122 or B16 tumor cells injection and seven times every second day following D122 or B16 tumor cells injection. Control mice were i.p. injected with PBS. Mice were sacrificed 20-21 days following injection of D122 or B16 tumor cells by injecting 20 mg/mouse Xylazine (i.p.) and lungs were weighed. Lungs were fixed, stained in Bouin's solution and metastases counted. For histology, lungs were fixed in buffered formalin and histological sections were prepared and stained with Hematoxylin-Eosin. Each experimental group included 7-12 animals, and experiments were repeated twice.
D122 tumor cells were injected i.v. to the tail of C57/BL mice. […] All together 77 μg of AP 1-42 were injected into each mouse. After 21 days tumor weight and number of metastases in the lungs were examined.
D122 tumor cells were injected intravenously to the tail of C57/BL mice. […]

| Substance | toxicity to neuronal cells [1] | reduction of the number of metastases in the lungs [2] [%] |
| --- | --- | --- |
| Aβ25-35: Aβ sequence fragment tested for neurotoxicity in the literature (GSNKGAIIGLM; Amyloid-beta protein 42; UniProt P05067 696-706, looked up, fragment) | induced toxicity | – |
| Aβ1-38: Aβ sequence fragment tested for neurotoxicity in the literature | induced toxicity | – |
| Aβ1-28: Aβ sequence fragment tested for neurotoxicity in the literature | non-toxic | – |
| NWCKRGRKQCKTHPH (cysteine pairing not given here) [Aβ96-10] | – | 9 |
| Aβ1-40: Aβ sequence fragment tested for neurotoxicity in the literature | induced toxicity | – |
